These results are taken from patent publication US20080199467A1.

A value given as a limit tells only on which side of the number the result lay.

This assay deals with Fc receptor on THP-1 cells. Put plainly: cell-based or functional assay.

Sequence of RAGE fusion protein TTP-4000 (Fc fusion) (chain): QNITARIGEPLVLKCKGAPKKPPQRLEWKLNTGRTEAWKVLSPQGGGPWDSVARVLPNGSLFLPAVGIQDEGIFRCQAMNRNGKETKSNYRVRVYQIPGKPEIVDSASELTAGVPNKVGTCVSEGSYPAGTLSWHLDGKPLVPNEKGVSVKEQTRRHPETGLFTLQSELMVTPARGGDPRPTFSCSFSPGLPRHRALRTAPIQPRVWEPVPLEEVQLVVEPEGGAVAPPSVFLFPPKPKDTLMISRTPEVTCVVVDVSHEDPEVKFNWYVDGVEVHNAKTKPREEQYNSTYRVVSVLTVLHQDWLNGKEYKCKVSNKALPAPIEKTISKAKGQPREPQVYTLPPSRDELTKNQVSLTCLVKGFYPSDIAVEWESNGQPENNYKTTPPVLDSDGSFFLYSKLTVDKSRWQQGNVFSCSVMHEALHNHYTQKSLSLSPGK

Consider “RAGE fusion protein TTP-4000 (Fc fusion)”, for which the TNF-α secretion from THP-1 cells on wells coated with 10 ug/well heat aggregated protein was below 2 ng/well. For “human IgG1 (heat aggregated, coated on the well) (antibody)” the value was above 40 ng/well.
